Reference: publication PMC3534030 (2012)

Target: EGFR (Homo sapiens, UniProt P00533)
Test: 125I-EGF radioligand saturation binding on human bone marrow mesenchymal progenitor cells

Kd: 0.0349 nM
B1: EGF (protein)
chain: NSYPGCPSSYDGYCLNGGVCMHIESLDSYTCNCVIGYSGDRCQTRDLRWWELR
modifications: 125I-labeled EGF
